Test results: the supplement of paper PMC10567573

B1: FLOT1 (parent)
chain: QMAKKAEAFQLYQEAAQLDMLLEK

Variants of: B1
Experiment: protein stability index of a GFP-peptide fusion (GPS, HEK-293T) (PSI 1-6); higher = more stable
Details: c terminus: a fixed tail appended
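Also: lentivirally expressed fusions sorted by FACS into six bins by GFP to DsRed ratio, PSI derived from sequencing read proportions per bin multiplied by bin number.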

Protein stability index of substitutions, site by site:
D19: H 1.8; L 1.24; Y 2.35; M 2.85; N 1.91; A 2.65; R 1.53
L11: V 2.98; Y 1.81; E 3.48; P 4.05; C 1.92; K 3.17
M20: C 1.97; E 3.76; T 3.22; H 2.94; G 3.94; V 2.38; A 2.75; L 1.85; F 2.25; Q 3.1
E7: L 2.95; N 2.05; I 1.4; D 1.55; M 1.64; R 1.22; C 1.86; T 1.36
E23: I 1.62; Q 1.75; G 3.26; L 2.21; F 1.72; K 2.11; M 1.28; S 2.53
Q17: V 1.14; D 3.81; S 1.88; C 1.71; I 1.72; E 1.89; F 2.6; W 4.61; P 3.95; R 2.46; M 1.02; K 1.65; A 1.47
L22: Y 1.5; K 3.07; V 2.33; D 2.54; M 2.02; F 2.23; H 2.48; Q 2.08; E 1.61; C 2.42; T 3.36
A15: E 4.04; R 2.92; V 2.33; Y 2.21; I 2.1; M 1.24; F 2.24; S 2.49
A16: K 3.59; S 3.68; I 1.44; W 1.35; V 1.1; Q 3.31; M 2.79; H 3.3
A6: Y 1.53; M 1.32; N 3.7; W 2.21; C 1.53; R 1.52; F 1.99; K 2.43; E 1.92
L21: G 4.02; T 2.97; I 2; Y 2.04; Q 1.75; R 3.19; F 2.35; H 3.47; C 2.9
E14: N 2.5; P 3.12; S 2.03; R 2.21; Q 1.36; T 1.97; K 1.83; H 1.94; A 1.3; D 2.13
K4: I 2.27; Q 1.51; F 1.68; Y 2.25; D 2.94; N 2.38; E 2.56
A8: V 1.2; W 1.91; Q 1.64; P 1.98; S 1.49; Y 1.03; N 1.4; C 1.7; I 2.05; T 1.83
A3: N 3.51; C 2.81; V 1.29; H 1.93; M 2.44
L18: G 3.8; H 1.83; E 3.61; T 3.56; N 2.66; W 2.03; S 2.51
F9: K 2.63; P 2.08; D 3.04; H 2.26; C 1.41; T 2.11; E 3.65; N 1.82
Q10: S 2.06; K 1.32; F 1.28; L 2.09; N 2.03; C 1.74
K24: F 2.2; P 3.37; W 2.57; M 2.23; L 2.08; E 4.03; Y 2.35
K5: P 2.83; F 2.8; V 1.78; D 2.1; N 1.42; T 2.01; H 1.75; E 2.21; C 2.68; S 1.22
